Tests used:
[1] = biological target: NCS-Orf16 (S. carzinostaticus); assay: SEC
[2] = biological target: SgcJ (Streptomyces globisporus); assay: SEC

stoichiometry N [1]	stoichiometry N [2]	Substance
2	–	NCS-Orf16 (natural protein)
–	2	SgcJ (natural protein)

From PMC5083130
